Source: article PMC7367873, “Dissecting the sequence determinants for dephosphorylation by the catalytic subunits of phosphatases PP1 and PP2A” (Nature Communications, 2020)

Columns and labels:
[1] = test system: GFP-14-3-3β and its binding proteins; test: GFP-14-3-3β co-IP with LC-MS/MS label-free quantification, untreated versus PP1c-treated; parameters: species or system human; details: pairwise comparison PP1 vs untreated, 3 replicates each
[2] = test system: GFP-14-3-3β; test: GFP-14-3-3β co-IP with LC-MS/MS, untreated GFP-14-3-3β versus GFP control (14-3-3 interactome); type: binding, human; details: 3 replicates each
[3] = student's t-test, LC-MS/MS label-free quantification
[4] = pairwise comparison untreated GFP-14-3-3β vs GFP, student's t-test, LC-MS/MS label-free quantification

Row | Difference (log2), PP1 vs untreated [1, 3] [log2] | Difference (log2), PP1 vs untreated ([1]; log2 difference, label-free quantification) | Molecule | Difference (log2), untreated vs GFP [2, 4] [log2] | Difference (log2), untreated vs GFP ([2]; log2 difference, pairwise comparison untreated vs GFP, label-free quantification)
1 | -2.776 | – | THRAP3 (protein, UniProt Q9Y2W1 2-955, looked up) Thyroid hormone …: SKTNKSKSGSRSSRSRSASRSRSRSFSKSRSRSRSLSRSRKRRLSSRSRSRSYSPAHNRERNHPRVYQNRDFRGHNRGYRRPYYFRGRNRGFYPWGQYNRGGYGNYRSNWQNYRQAYSPRRGRSRSRSPKRRSPSPRSRSHSRNSDKSSSDRSRRSSSSRSSSNHSRVESSKRKSAKEKKSSSKDSRPSQAAGDNQGDEAKEQTFSGGTSQDTKASESSKPWPDATYGTGSASRASAVSELSPRERSPALKSPLQSVVVRRRSPRPSPVPKPSPPLSSTSQMGSTLPSGAGYQSGTHQGQFDHGSGSLSPSKKSPVGKSPPSTGSTYGSSQKEESAASGGAAYTKRYLEEQKTENGKDKEQKQTNTDKEKIKEKGSFSDTGLGDGKMKSDSFAPKTDSEKPFRGSQSPKRYKLRDDFEKKMADFHKEEMDDQDKDKAKGRKESEFDDEPKFMSKVIGANKNQEEEKSGKWEGLVYAPPGKEKQRKTEELEEESFPERSKKEDRGKRSEGGHRGFVPEKNFRVTAYKAVQEKSSSPPPRKTSESRDKLGAKGDFPTGKSSFSITREAQVNVRMDSFDEDLARPSGLLAQERKLCRDLVHSNKKEQEFRSIFQHIQSAQSQRSPSELFAQHIVTIVHHVKEHHFGSSGMTLHERFTKYLKRGTEQEAAKNKKSPEIHRRIDISPSTFRKHGLAHDEMKSPREPGYKAEGKYKDDPVDLRLDIERRKKHKERDLKRGKSRESVDSRDSSHSRERSAEKTEKTHKGSKKQKKHRRARDRSRSSSSSSQSSHSYKAEEYTEETEEREESTTGFDKSRLGTKDFVGPSERGGGRARGTFQFRARGRGWGRGNYSGNNNNNSNNDFQKRNREEEWDPEYTPKSKKYYLHDDREGEGSDKWVSRGRGRGAFPRGRGRFMFRKSSTSPKWAHDKFSGEEGEIEDDESGTENREEKDNIQPTTE | 4.049 | –
2 | – | 1.555 | NXF1 (protein, UniProt Q9UBU9 2-619, looked up) Nuclear RNA export factor 1: ADEGKSYSEHDDERVNFPQRKKKGRGPFRWKYGEGNRRSGRGGSGIRSSRLEEDDGDVAMSDAQDGPRVRYNPYTTRPNRRGDTWHDRDRIHVTVRRDRAPPERGGAGTSQDGTSKNWFKITIPYGRKYDKAWLLSMIQSKCSVPFTPIEFHYENTRAQFFVEDASTASALKAVNYKILDRENRRISIIINSSAPPHTILNELKPEQVEQLKLIMSKRYDGSQQALDLKGLRSDPDLVAQNIDVVLNRRSCMAATLRIIEENIPELLSLNLSNNRLYRLDDMSSIVQKAPNLKILNLSGNELKSERELDKIKGLKLEELWLDGNSLCDTFRDQSTYISAIRERFPKLLRLDGHELPPPIAFDVEAPTTLPPCKGSYFGTENLKSLVLHFLQQYYAIYDSGDRQGLLDAYHDGACCSLSIPFIPQNPARSSLAEYFKDSRNVKKLKDPTLRFRLLKHTRLNVVAFLNELPKTQHDVNSFVVDISAQTSTLLCFSVNGVFKEVDGKSRDSLRAFTRTFIAVPASNSGLCIVNDELFVRNASSEEIQRAFAMPAPTPSSSPVPTLSPEQQEMLQAFSTQSGMNLEWSQKCLQDNNWDYTRSAQAFTHLKAKGEIPEVAFMK | – | 3.395
3 | -2.506 | – | SIPA1 (protein, UniProt Q96FS4 1-1042, looked up) Signal-induced …: MPMWAGGVGSPRRGMAPASTDDLFARKLRQPARPPLTPHTFEPRPVRGPLLRSGSDAGEARPPTPASPRARAHSHEEASRPAATSTRLFTDPLALLGLPAEEPEPAFPPVLEPRWFAHYDVQSLLFDWAPRSQGMGSHSEASSGTLASAEDQAASSDLLHGAPGFVCELGGEGELGLGGPASPPVPPALPNAAVSILEEPQNRTSAYSLEHADLGAGYYRKYFYGKEHQNFFGMDESLGPVAVSLRREEKEGSGGGTLHSYRVIVRTTQLRTLRGTISEDALPPGPPRGLSPRKLLEHVAPQLSPSCLRLGSASPKVPRTLLTLDEQVLSFQRKVGILYCRAGQGSEEEMYNNQEAGPAFMQFLTLLGDVVRLKGFESYRAQLDTKTDSTGTHSLYTTYQDHEIMFHVSTMLPYTPNNQQQLLRKRHIGNDIVTIVFQEPGSKPFCPTTIRSHFQHVFLVVRAHTPCTPHTTYRVAVSRTQDTPAFGPALPAGGGPFAANADFRAFLLAKALNGEQAAGHARQFHAMATRTRQQYLQDLATNEVTTTSLDSASRFGLPSLGGRRRAAPRGPGAELQAAGSLVWGVRAAPGARVAAGAQASGPEGIEVPCLLGISAEALVLVAPRDGRVVFNCACRDVLAWTFSEQQLDLYHGRGEAITLRFDGSPGQAVGEVVARLQLVSRGCETRELALPRDGQGRLGFEVDAEGFVTHVERFTFAETAGLRPGARLLRVCGQTLPSLRPEAAAQLLRSAPKVCVTVLPPDESGRPRRSFSELYTLSLQEPSRRGAPDPVQDEVQGVTLLPTTKQLLHLCLQDGGSPPGPGDLAEERTEFLHSQNSLSPRSSLSDEAPVLPNTTPDLLLATTAKPSVPSADSETPLTQDRPGSPSGSEDKGNPAPELRASFLPRTLSLRNSISRIMSEAGSGTLEDEWQAISEIASTCNTILESLSREGQPIPESGDPKGTPKSDAEPEPGNLSEKVSHLESMLRKLQEDLQKEKADRAALEEEVRSLRHNNRRLQAESESAATRLLLASKQLGSPTADLA | 4.698 | –
4 | -2.76 | – | TFEB (protein, UniProt P19484 1-476, looked up) Transcription factor EB: MASRIGLRMQLMREQAQQEEQRERMQQQAVMHYMQQQQQQQQQQLGGPPTPAINTPVHFQSPPPVPGEVLKVQSYLENPTSYHLQQSQHQKVREYLSETYGNKFAAHISPAQGSPKPPPAASPGVRAGHVLSSSAGNSAPNSPMAMLHIGSNPERELDDVIDNIMRLDDVLGYINPEMQMPNTLPLSSSHLNVYSSDPQVTASLVGVTSSSCPADLTQKRELTDAESRALAKERQKKDNHNLIERRRRFNINDRIKELGMLIPKANDLDVRWNKGTILKASVDYIRRMQKDLQKSRELENHSRRLEMTNKQLWLRIQELEMQARVHGLPTTSPSGMNMAELAQQVVKQELPSEEGPGEALMLGAEVPDPEPLPALPPQAPLPLPTQPPSPFHHLDFSHSLSFGGREDEGPPGYPEPLAPGHGSPFPSLSKKDLDLMLLDDSLLPLASDPLLSTMSPEASKASSRRSSFSMEEGDVL | 5.784 | –
5 | -2.973 | – | SRSF10 (protein, UniProt O75494 1-262, looked up) Serine/arginine-rich splicing …: MSRYLRPPNTSLFVRNVADDTRSEDLRREFGRYGPIVDVYVPLDFYTRRPRGFAYVQFEDVRDAEDALHNLDRKWICGRQIEIQFAQGDRKTPNQMKAKEGRNVYSSSRYDDYDRYRRSRSRSYERRRSRSRSFDYNYRRSYSPRNSRPTGRPRRSRSHSDNDRFKHRNRSFSRSKSNSRSRSKSQPKKEMKAKSRSRSASHTKTRGTSKTDSKTHYKSGSRYEKESRKKEPPRSKSQSRSQSRSRSKSRSRSWTSPKSSGH | 3.797 | –
6 | -2.839 | – | TFE3 (protein, UniProt P19532 1-575, looked up) Transcription factor E3: MSHAAEPARDGVEASAEGPRAVFVLLEERRPADSAQLLSLNSLLPESGIVADIELENVLDPDSFYELKSQPLPLRSSLPISLQATPATPATLSASSSAGGSRTPAMSSSSSSRVLLRQQLMRAQAQEQERRERREQAAAAPFPSPAPASPAISVVGVSAGGHTLSRPPPAQVPREVLKVQTHLENPTRYHLQQARRQQVKQYLSTTLGPKLASQALTPPPGPASAQPLPAPEAAHTTGPTGSAPNSPMALLTIGSSSEKEIDDVIDEIISLESSYNDEMLSYLPGGTTGLQLPSTLPVSGNLLDVYSSQGVATPAITVSNSCPAELPNIKREISETEAKALLKERQKKDNHNLIERRRRFNINDRIKELGTLIPKSSDPEMRWNKGTILKASVDYIRKLQKEQQRSKDLESRQRSLEQANRSLQLRIQELELQAQIHGLPVPPTPGLLSLATTSASDSLKPEQLDIEEEGRPGAATFHVGGGPAQNAPHQQPPAPPSDALLDLHFPSDHLGDLGDPFHLGLEDILMEEEEGVVGGLSGGALSPLRAASDPLLSSVSPAVSKASSRRSSFSMEEES | 3.895 | –
7 | -2.551 | – | HDAC7 (protein, UniProt Q8WUI4 1-952, looked up) Histone deacetylase 7: MDLRVGQRPPVEPPPEPTLLALQRPQRLHHHLFLAGLQQQRSVEPMRLSMDTPMPELQVGPQEQELRQLLHKDKSKRSAVASSVVKQKLAEVILKKQQAALERTVHPNSPGIPYRTLEPLETEGATRSMLSSFLPPVPSLPSDPPEHFPLRKTVSEPNLKLRYKPKKSLERRKNPLLRKESAPPSLRRRPAETLGDSSPSSSSTPASGCSSPNDSEHGPNPILGSEALLGQRLRLQETSVAPFALPTVSLLPAITLGLPAPARADSDRRTHPTLGPRGPILGSPHTPLFLPHGLEPEAGGTLPSRLQPILLLDPSGSHAPLLTVPGLGPLPFHFAQSLMTTERLSGSGLHWPLSRTRSEPLPPSATAPPPPGPMQPRLEQLKTHVQVIKRSAKPSEKPRLRQIPSAEDLETDGGGPGQVVDDGLEHRELGHGQPEARGPAPLQQHPQVLLWEQQRLAGRLPRGSTGDTVLLPLAQGGHRPLSRAQSSPAAPASLSAPEPASQARVLSSSETPARTLPFTTGLIYDSVMLKHQCSCGDNSRHPEHAGRIQSIWSRLQERGLRSQCECLRGRKASLEELQSVHSERHVLLYGTNPLSRLKLDNGKLAGLLAQRMFVMLPCGGVGVDTDTIWNELHSSNAARWAAGSVTDLAFKVASRELKNGFAVVRPPGHHADHSTAMGFCFFNSVAIACRQLQQQSKASKILIVDWDVHHGNGTQQTFYQDPSVLYISLHRHDDGNFFPGSGAVDEVGAGSGEGFNVNVAWAGGLDPPMGDPEYLAAFRIVVMPIAREFSPDLVLVSAGFDAAEGHPAPLGGYHVSAKCFGYMTQQLMNLAGGAVVLALEGGHDLTAICDASEACVAALLGNRVDPLSEEGWKQKPNLNAIRSLEAVIRVHSKYWGCMQRLASCPDSWVPRVPGADKEEVEAVTALASLSVGILAEDRPSEQLVEEEEPMNL | 7.896 | –
